# Data published in PMC5094776, “The miR165/166 Mediated Regulatory Module Plays Critical Roles in ABA Homeostasis and Response in Arabidopsis thaliana”.
# B1: BG1 binding motif probe (dsDNA)
# DNA 1: AGAAGTTTTGGTAATGATACTGAAACACATTTC
# DNA 2: GAAATGTGTTTCAGTATCATTACCAAAACTTCT
# B2: ABI4 binding motif probe (dsDNA)
# DNA 1: TTAGCCGTTATGTAATGATTTATTCTAGTTTCA
# DNA 2: TGAAACTAGAATAAATCATTACATAACGGCTAA
# Target: T1, GST-PHB (PHABULOSA, HD-ZIPIII) (Arabidopsis thaliana, UniProt O04291 1-852)
# T1 sequence: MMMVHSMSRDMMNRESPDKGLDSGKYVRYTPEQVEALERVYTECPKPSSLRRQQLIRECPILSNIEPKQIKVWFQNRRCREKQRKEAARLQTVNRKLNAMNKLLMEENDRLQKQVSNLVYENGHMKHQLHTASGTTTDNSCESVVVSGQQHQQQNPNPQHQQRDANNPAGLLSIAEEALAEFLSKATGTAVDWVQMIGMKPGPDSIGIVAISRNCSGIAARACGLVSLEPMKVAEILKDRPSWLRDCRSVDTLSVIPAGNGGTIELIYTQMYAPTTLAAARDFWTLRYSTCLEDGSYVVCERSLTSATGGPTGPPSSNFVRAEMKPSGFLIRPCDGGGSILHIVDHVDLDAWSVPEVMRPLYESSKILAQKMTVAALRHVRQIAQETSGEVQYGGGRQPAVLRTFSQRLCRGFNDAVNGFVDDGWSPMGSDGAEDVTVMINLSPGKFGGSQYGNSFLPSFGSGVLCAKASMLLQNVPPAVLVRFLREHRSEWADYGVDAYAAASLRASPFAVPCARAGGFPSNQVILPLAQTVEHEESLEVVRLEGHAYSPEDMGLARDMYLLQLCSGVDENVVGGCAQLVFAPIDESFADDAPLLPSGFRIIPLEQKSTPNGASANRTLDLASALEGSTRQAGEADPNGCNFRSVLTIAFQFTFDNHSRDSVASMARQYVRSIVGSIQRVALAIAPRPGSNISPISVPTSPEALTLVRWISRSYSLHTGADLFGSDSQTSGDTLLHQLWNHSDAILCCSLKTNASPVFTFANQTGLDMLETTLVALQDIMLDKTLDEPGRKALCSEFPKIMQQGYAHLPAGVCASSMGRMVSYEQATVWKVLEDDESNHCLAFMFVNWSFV
# Assay: EMSA; unlabeled self-competitor at 10x and 100x also tested (gel only); 20 mM Tris-HCl pH 7.5, 300 mM NaCl, 5 mM MgCl2, 0.1% NP-40, 0.5 mM DTT, 20-60 min, room temperature; 6% PAGE in Tris-glycine
# Conditions: protein: recombinant; tags: GST (N-terminal, pGEX4T-1); chain copies: 2; label: 32P; blunt
row,Binder,binding result
1,B1,binds
2,B2,binds
